The target in this assay is CaM-GST on Sepharose beads (UniProt P0DP23). In words: pull-down.

CaMKIIα-Venus, sequence (P11275 whole entry): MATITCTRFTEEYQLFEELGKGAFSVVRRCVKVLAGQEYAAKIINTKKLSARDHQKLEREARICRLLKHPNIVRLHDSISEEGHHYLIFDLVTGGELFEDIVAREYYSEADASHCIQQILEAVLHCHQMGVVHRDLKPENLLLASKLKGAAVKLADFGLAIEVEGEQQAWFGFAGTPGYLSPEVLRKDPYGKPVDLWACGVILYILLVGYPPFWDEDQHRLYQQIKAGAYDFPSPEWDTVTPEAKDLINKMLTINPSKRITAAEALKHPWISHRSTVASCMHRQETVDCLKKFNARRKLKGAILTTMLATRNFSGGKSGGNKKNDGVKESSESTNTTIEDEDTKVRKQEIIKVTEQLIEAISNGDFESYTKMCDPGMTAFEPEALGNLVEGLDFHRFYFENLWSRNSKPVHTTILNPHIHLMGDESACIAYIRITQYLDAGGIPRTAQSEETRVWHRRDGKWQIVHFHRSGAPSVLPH
human Ano1(ac) (natural protein), sequence (Q5XXA6 whole entry): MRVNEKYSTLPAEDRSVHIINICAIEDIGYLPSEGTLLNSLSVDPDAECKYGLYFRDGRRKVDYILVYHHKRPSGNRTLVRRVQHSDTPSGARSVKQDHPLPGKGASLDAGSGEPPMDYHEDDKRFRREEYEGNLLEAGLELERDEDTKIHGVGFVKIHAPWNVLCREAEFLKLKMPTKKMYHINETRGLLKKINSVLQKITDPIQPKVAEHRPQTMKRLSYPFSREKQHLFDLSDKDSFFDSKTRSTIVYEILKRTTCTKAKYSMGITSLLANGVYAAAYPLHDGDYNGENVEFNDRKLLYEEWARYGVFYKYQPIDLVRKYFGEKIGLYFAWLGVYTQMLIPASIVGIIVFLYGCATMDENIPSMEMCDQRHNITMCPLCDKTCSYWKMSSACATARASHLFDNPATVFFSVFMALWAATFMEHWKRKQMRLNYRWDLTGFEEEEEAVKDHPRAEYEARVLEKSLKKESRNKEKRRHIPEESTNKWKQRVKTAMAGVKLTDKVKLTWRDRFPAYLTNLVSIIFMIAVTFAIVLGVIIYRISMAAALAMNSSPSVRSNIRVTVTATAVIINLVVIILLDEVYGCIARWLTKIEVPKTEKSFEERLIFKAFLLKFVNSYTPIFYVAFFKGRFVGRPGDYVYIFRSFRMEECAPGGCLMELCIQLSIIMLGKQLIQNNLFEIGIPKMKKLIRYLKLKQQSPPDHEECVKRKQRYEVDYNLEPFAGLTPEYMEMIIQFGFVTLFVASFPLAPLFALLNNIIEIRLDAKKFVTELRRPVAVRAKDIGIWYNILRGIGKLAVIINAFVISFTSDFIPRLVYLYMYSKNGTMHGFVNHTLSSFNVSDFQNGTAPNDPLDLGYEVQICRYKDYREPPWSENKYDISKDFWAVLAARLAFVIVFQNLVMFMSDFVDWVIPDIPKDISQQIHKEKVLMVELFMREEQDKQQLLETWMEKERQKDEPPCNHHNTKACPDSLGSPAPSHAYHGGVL
mAno1-FLAG(3X), sequence (Q8BHY3 whole entry): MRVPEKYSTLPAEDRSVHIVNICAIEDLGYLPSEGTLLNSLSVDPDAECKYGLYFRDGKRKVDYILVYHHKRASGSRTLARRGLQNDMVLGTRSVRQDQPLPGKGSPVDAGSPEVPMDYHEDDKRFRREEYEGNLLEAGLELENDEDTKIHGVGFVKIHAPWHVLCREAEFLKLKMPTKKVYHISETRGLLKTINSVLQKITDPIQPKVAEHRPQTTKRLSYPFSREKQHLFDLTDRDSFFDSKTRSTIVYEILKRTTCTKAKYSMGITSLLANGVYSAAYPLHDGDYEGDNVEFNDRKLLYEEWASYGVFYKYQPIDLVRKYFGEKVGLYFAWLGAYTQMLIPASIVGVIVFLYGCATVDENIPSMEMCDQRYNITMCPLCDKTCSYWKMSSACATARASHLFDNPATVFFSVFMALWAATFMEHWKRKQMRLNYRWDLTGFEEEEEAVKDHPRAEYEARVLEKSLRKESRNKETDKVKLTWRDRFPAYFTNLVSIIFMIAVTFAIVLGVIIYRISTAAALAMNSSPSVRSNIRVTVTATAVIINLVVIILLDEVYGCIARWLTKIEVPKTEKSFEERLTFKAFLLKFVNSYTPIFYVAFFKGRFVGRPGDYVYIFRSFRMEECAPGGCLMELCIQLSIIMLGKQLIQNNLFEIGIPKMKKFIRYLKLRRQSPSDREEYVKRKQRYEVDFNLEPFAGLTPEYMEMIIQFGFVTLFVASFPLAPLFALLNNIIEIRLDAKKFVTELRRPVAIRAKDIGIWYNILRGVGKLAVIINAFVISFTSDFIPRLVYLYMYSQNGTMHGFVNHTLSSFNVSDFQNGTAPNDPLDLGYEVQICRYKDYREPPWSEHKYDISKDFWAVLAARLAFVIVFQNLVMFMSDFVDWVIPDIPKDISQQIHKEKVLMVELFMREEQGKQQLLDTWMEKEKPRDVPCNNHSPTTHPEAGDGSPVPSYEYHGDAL

Consider “CaMKIIα-Venus (from UniProt P11275 1-478) (enzyme)”, for which the fold bound with Ca2+ over without Ca2+ is 10 fold and the percent of the protein in the lysate that bound stood at 100%.
Substance “mAno1-FLAG(3X) (from UniProt Q8BHY3 1-960) (natural protein)” had a percent of the protein in the lysate that bound of less than 1%.
As to human Ano1(ac) (natural protein), the fold bound with Ca2+ over without Ca2+ stood at 2 fold and the percent of the protein in the lysate that bound is less than 1%.
